For assay [1], the target named is MMP-9 cleaved TRZ-Fc4 (human). Nature of the assay: BLI; antibody variant on anti-human Fab-CH1 (Fab2G) sensors; FcγRI 6.25, 12.5, 25, 50 nM, then dissociation in kinetics buffer; 1:1 Langmuir model.
The target in another assay is trastuzumab (human). Described as above.
Assay [2] concerns the target human complement C1q (human) (UniProt P02745). The assay can be described thus: BLI.
Assay [3] has as its target FcγRIIIa V158 (high-affinity variant of FcγRIIIa) on engineered ADCC reporter effector cells.

Sequence of His-tagged human Fc gamma RI (CD64) (P12314 16-292): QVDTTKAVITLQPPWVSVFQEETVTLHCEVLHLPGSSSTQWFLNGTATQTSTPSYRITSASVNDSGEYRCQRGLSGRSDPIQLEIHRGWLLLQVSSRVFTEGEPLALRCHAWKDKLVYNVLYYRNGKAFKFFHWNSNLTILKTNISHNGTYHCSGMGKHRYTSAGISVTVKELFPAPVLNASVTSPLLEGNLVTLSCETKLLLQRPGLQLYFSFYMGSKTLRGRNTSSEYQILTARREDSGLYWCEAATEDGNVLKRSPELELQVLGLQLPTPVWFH
Sequence of human complement C1q (human) (P02745 23-245, chain 1 of 3): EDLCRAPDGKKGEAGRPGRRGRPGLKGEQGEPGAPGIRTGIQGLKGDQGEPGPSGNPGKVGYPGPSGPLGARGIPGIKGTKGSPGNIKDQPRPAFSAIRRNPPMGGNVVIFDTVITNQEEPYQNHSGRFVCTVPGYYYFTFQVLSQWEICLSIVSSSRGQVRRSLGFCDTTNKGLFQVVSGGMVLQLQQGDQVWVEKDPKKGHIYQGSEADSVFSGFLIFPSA
Sequence of human complement C1q (human) (P02746 28-253, chain 2 of 3, further chain): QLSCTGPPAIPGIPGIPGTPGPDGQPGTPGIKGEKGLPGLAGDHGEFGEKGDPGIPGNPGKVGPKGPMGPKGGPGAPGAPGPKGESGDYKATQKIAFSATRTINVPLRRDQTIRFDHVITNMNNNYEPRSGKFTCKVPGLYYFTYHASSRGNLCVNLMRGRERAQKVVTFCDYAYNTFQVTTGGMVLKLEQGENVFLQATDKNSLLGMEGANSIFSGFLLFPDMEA
Sequence of human complement C1q (human) (P02747 29-245, chain 3 of 3, further chain): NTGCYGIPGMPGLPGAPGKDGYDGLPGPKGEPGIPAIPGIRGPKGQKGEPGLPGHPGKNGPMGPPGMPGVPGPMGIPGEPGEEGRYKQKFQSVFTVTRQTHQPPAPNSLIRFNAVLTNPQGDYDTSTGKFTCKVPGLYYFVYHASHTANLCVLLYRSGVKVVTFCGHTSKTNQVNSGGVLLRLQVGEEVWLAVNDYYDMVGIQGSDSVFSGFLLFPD

A word on the Kd: it is a measure of binding affinity in units of concentration. Turning to “His-tagged human Fc gamma RI (CD64) (from UniProt P12314 16-292) (receptor)”, the Kd was determined as 1.6 nM in assay [1] and 1.3 nM in the assay with trastuzumab (human).
trastuzumab: the dissociation constant (Kd) in assay [2] was found to be 209 nM.
For the substance trastuzumab (antibody), in assay [3], the ADCC reporter assay, fold induction, SK-BR-3 target cells, with MMP-2/MMP-9 inhibitor, antibody 10 fM to 100 nM; highest induction, reached at 1 nM (fold induction) came out at 57.6 and the EC50 of ADCC reporter induction, SK-BR-3 target cells came to 0.039 nM.

The values are drawn from paper PMC8369199.
